Measured values as given in US20230257470A1 (published 2023).
Changes are numbered by the printed parent chain. Names and notes keep the numbering of the source.

T1: human FcγRIIa type R (human, UniProt P12318 36-217)
T1 construct: also called FcgRIIaR; FcγRIIa(R)
T1 chain: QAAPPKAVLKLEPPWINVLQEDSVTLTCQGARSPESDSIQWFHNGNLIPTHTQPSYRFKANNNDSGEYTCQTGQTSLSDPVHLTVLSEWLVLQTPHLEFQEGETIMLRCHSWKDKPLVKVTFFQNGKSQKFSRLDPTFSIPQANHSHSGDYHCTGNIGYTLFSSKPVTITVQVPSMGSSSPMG

T2: human FcγRIIa type H (human, UniProt P12318 36-217)
T2 construct: also called FcgRIIaH; FcγRIIa(H)
T2 sequence: T1 chain with R133H

T3: human FcγRIIb (human, UniProt P31994 43-217, limits assumed)
T3 construct: also called FcgRIIb; FcγIIB
T3 sequence: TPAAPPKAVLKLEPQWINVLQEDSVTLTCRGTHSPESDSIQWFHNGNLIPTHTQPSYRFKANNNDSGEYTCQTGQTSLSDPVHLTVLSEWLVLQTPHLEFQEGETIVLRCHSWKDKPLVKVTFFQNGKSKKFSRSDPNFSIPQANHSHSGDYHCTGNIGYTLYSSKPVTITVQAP

B1: IL6R-BP082/IL6R-L (antibody, human IgG1, name in EU numbering)
heavy: QVQLQESGPGLVKPSETLSLTCAVSGHSISHDHAWSWVRQPPGEGLEWIGFISYSGITNYNPSLQGRVTISRDNSKNTLYLQMNSLRAEDTAVYYCARSLARTTAMDYWGEGTLVTVSSASTKGPSVFPLAPSSKSTSGGTAALGCLVKDYFPEPVTVSWNSGALTSGVHTFPAVLQSSGLYSLSSVVTVPSSSLGTQTYICNVNHKPSNTKVDKKVEPKSCDKTHTCPPCPAPDLLGGDSVFLFPPKPKDTLMISRTPEVTCVVVDVSHEDPEVKFNWYVDGVEVHNAKTKPREEQYNSTYRVVSVLTVLHQDWLNGKEYKCKVSNKALPKPIEKTISKAKGQPREPQVYTLPPSRDELTKNQVSLTCLVKGFYPSDIAVEWESNGQPENNYKTTPPVLDSDGSFFLYSKLTVDKSRWQQGNVFSCSVMHEALHNHYTQESLSLSP
light: DIQMTQSPSSLSASVGDRVTITCRASQDISSYLNWYQQKPGKAPKLLIYYTSRLHSGVPSRFSGSGSGTDFTFTISSLQPEDIATYYCQQGNTLPYTFGQGTKVEIK
notes: copies: 2 + 2
B2: IL6R-BF648/IL6R-L (antibody, human IgG1, name in EU numbering)
heavy: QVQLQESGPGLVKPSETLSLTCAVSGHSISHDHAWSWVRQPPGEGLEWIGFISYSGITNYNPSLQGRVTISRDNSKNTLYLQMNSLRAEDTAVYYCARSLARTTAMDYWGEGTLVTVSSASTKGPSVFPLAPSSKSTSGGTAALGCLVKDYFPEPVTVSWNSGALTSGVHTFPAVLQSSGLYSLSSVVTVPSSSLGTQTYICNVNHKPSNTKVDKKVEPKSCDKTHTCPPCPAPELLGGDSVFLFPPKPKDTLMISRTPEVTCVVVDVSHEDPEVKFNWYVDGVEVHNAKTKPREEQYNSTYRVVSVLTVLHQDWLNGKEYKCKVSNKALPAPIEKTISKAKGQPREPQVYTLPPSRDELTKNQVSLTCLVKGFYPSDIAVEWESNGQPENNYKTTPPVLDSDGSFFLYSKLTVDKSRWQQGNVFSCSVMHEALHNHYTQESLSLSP
light: B1 light
notes: copies: 2 + 2
B3: IL6R-BP088/IL6R-L (antibody, human IgG1, name in EU numbering)
heavy: B1 heavy with D235E, G239D, K328A
light: B1 light
notes: copies: 2 + 2
B4: IL6R-BP152/IL6R-L (antibody, human IgG1, name in EU numbering)
heavy: B1 heavy with L236Y, G239D, Y298D, K328A, K332R
light: B1 light
notes: the list runs over r38 and r39; copies: 2 + 2
B5: IL6R-BP178/IL6R-L (antibody, human IgG1, name in EU numbering)
heavy: B1 heavy with G239D, P273G
light: B1 light
notes: the list runs over r43 and r44; copies: 2 + 2
B6: IL6R-BP151/IL6R-L (antibody, human IgG1, name in EU numbering)
heavy: B1 heavy with L236Y, G239D, K328A, K332R
light: B1 light
notes: the list runs over r36 and r37; copies: 2 + 2
B7: IL6R-BP086/IL6R-L (antibody, human IgG1, name in EU numbering)
heavy: B1 heavy with D235E, K328A
light: B1 light
notes: copies: 2 + 2
B8: IL6R-BP131/IL6R-L (antibody, human IgG1, name in EU numbering)
heavy: B1 heavy with G239D
light: B1 light
notes: copies: 2 + 2
B9: IL6R-BP181/IL6R-L (antibody, human IgG1, name in EU numbering)
heavy: B1 heavy with P273G, K328A
light: B1 light
notes: the list runs over r48 and r49; copies: 2 + 2
B10: IL6R-BP176/IL6R-L (antibody, human IgG1, name in EU numbering)
heavy: B1 heavy with K328D
light: B1 light
notes: copies: 2 + 2
B11: IL6R-BP130/IL6R-L (antibody, human IgG1, name in EU numbering)
heavy: B1 heavy with V325M
light: B1 light
notes: copies: 2 + 2
B12: IL6R-2B261/IL6R-L (antibody, human IgG1, name in EU numbering)
heavy: B1 heavy with Y298D, K332A
light: B1 light
notes: copies: 2 + 2
B13: IL6R-2B253/IL6R-L (antibody, human IgG1, name in EU numbering)
heavy: B1 heavy with V325M, K332A
light: B1 light
notes: copies: 2 + 2
B14: IL6R-BP085/IL6R-L (antibody, human IgG1, name in EU numbering)
heavy: B1 heavy with D235E, G239D
light: B1 light
notes: copies: 2 + 2
B15: IL6R-BP087/IL6R-L (antibody, human IgG1, name in EU numbering)
heavy: B1 heavy with D235E, L236Y
light: B1 light
notes: copies: 2 + 2
B16: IL6R-BP084/IL6R-L (antibody, human IgG1, name in EU numbering)
heavy: B1 heavy with D235E, V325M
light: B1 light
notes: copies: 2 + 2
B17: IL6R-BP083/IL6R-L (antibody, human IgG1, name in EU numbering)
heavy: B1 heavy with D235E, Y298D
light: B1 light
notes: copies: 2 + 2
B18: IL6R-BP089/IL6R-L (antibody, human IgG1, name in EU numbering)
heavy: B1 heavy with D235E, L236Y, K328A
light: B1 light
notes: copies: 2 + 2
B19: IL6R-B3/IL6R-L (antibody, human IgG1)
heavy: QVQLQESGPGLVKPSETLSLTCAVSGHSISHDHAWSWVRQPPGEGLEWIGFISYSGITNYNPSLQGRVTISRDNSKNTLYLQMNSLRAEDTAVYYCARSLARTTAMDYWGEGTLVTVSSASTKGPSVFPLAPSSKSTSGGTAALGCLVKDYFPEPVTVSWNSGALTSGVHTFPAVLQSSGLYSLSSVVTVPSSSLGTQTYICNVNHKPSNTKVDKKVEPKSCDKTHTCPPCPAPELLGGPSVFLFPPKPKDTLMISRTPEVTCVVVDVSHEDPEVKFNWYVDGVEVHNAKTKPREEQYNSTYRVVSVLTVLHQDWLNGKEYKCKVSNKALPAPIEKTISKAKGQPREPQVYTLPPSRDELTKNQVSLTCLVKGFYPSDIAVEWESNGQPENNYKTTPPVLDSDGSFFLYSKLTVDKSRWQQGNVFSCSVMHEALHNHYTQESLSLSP
light: B1 light
notes: IL6R-G1d with K439E (EU numbering); parent polypeptide of the variants; copies: 2 + 2
B20: IL6R-BP132/IL6R-L (antibody, human IgG1, name in EU numbering)
heavy: B1 heavy with K328A
light: B1 light
notes: copies: 2 + 2
B21: IL6R-BP146/IL6R-L (antibody, human IgG1, name in EU numbering)
heavy: B1 heavy with D235E, L236Y, G239D, K328A, K332A
light: B1 light
notes: copies: 2 + 2

Biological target: T4, human FcγRIa (human, UniProt P12314 16-292, limits assumed)
T4 construct: also called FcgRIa; FcγRI (CD64)
Assay: SPR (Biacore), FcγR over captured antibody; binding amount divided by that of IL6R-BF648/IL6R-L x 100
Description: (§1) According to the following method, relative binding activities were calculated for the results of analyzing interactions with the respective FcγRs.

T4 sequence (P12314 16-292 limits assumed): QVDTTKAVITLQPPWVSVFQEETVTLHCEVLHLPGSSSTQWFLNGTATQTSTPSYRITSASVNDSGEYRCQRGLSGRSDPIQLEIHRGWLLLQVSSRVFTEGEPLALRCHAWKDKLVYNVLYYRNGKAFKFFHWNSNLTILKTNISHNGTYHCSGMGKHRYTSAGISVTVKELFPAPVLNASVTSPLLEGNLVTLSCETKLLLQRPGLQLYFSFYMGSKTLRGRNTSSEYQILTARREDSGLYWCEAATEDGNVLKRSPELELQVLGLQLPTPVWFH

relative binding activity	Binder
74 relative (IL6R-BF648/IL6R-L = 100)	B1
100 relative (IL6R-BF648/IL6R-L = 100)	B2
25 relative (IL6R-BF648/IL6R-L = 100)	B3
34 relative (IL6R-BF648/IL6R-L = 100)	B4
51 relative (IL6R-BF648/IL6R-L = 100)	B5
39 relative (IL6R-BF648/IL6R-L = 100)	B6
72 relative (IL6R-BF648/IL6R-L = 100)	B7
33 relative (IL6R-BF648/IL6R-L = 100)	B8
108 relative (IL6R-BF648/IL6R-L = 100)	B9
102 relative (IL6R-BF648/IL6R-L = 100)	B10
104 relative (IL6R-BF648/IL6R-L = 100)	B11
100 relative (IL6R-BF648/IL6R-L = 100)	B12
155 relative (IL6R-BF648/IL6R-L = 100)	B13
19 relative (IL6R-BF648/IL6R-L = 100)	B14
33 relative (IL6R-BF648/IL6R-L = 100)	B15
109 relative (IL6R-BF648/IL6R-L = 100)	B16
50 relative (IL6R-BF648/IL6R-L = 100)	B17
43 relative (IL6R-BF648/IL6R-L = 100)	B18
145 relative (IL6R-BF648/IL6R-L = 100)	B19

Biological target: T1, human FcγRIIa type R
Assay: as above
Description: as §1

relative binding activity	Binder
126 relative (IL6R-BF648/IL6R-L = 100)	B1
100 relative (IL6R-BF648/IL6R-L = 100)	B2
377 relative (IL6R-BF648/IL6R-L = 100)	B3
638 relative (IL6R-BF648/IL6R-L = 100)	B4
653 relative (IL6R-BF648/IL6R-L = 100)	B5
705 relative (IL6R-BF648/IL6R-L = 100)	B6
191 relative (IL6R-BF648/IL6R-L = 100)	B20
155 relative (IL6R-BF648/IL6R-L = 100)	B7
364 relative (IL6R-BF648/IL6R-L = 100)	B8
445 relative (IL6R-BF648/IL6R-L = 100)	B21
362 relative (IL6R-BF648/IL6R-L = 100)	B9
201 relative (IL6R-BF648/IL6R-L = 100)	B10
272 relative (IL6R-BF648/IL6R-L = 100)	B11
94 relative (IL6R-BF648/IL6R-L = 100)	B12
288 relative (IL6R-BF648/IL6R-L = 100)	B13
279 relative (IL6R-BF648/IL6R-L = 100)	B14
163 relative (IL6R-BF648/IL6R-L = 100)	B15
203 relative (IL6R-BF648/IL6R-L = 100)	B16
87 relative (IL6R-BF648/IL6R-L = 100)	B17
222 relative (IL6R-BF648/IL6R-L = 100)	B18
625 relative (IL6R-BF648/IL6R-L = 100)	B19

Biological target: T2, human FcγRIIa type H
Assay: as above
Description: as §1

relative binding activity	Binder
106 relative (IL6R-BF648/IL6R-L = 100)	B1
100 relative (IL6R-BF648/IL6R-L = 100)	B2
166 relative (IL6R-BF648/IL6R-L = 100)	B3
548 relative (IL6R-BF648/IL6R-L = 100)	B4
259 relative (IL6R-BF648/IL6R-L = 100)	B5
621 relative (IL6R-BF648/IL6R-L = 100)	B6
130 relative (IL6R-BF648/IL6R-L = 100)	B20
116 relative (IL6R-BF648/IL6R-L = 100)	B7
253 relative (IL6R-BF648/IL6R-L = 100)	B8
203 relative (IL6R-BF648/IL6R-L = 100)	B21
150 relative (IL6R-BF648/IL6R-L = 100)	B9
128 relative (IL6R-BF648/IL6R-L = 100)	B10
224 relative (IL6R-BF648/IL6R-L = 100)	B11
91 relative (IL6R-BF648/IL6R-L = 100)	B12
207 relative (IL6R-BF648/IL6R-L = 100)	B13
158 relative (IL6R-BF648/IL6R-L = 100)	B14
179 relative (IL6R-BF648/IL6R-L = 100)	B15
162 relative (IL6R-BF648/IL6R-L = 100)	B16
91 relative (IL6R-BF648/IL6R-L = 100)	B17
186 relative (IL6R-BF648/IL6R-L = 100)	B18
1600 relative (IL6R-BF648/IL6R-L = 100)	B19

Biological target: T3, human FcγRIIb
Assay: as above
Description: as §1

relative binding activity	Binder
136 relative (IL6R-BF648/IL6R-L = 100)	B1
100 relative (IL6R-BF648/IL6R-L = 100)	B2
161 relative (IL6R-BF648/IL6R-L = 100)	B3
178 relative (IL6R-BF648/IL6R-L = 100)	B4
179 relative (IL6R-BF648/IL6R-L = 100)	B5
150 relative (IL6R-BF648/IL6R-L = 100)	B20
137 relative (IL6R-BF648/IL6R-L = 100)	B7
156 relative (IL6R-BF648/IL6R-L = 100)	B21
147 relative (IL6R-BF648/IL6R-L = 100)	B10
115 relative (IL6R-BF648/IL6R-L = 100)	B12
156 relative (IL6R-BF648/IL6R-L = 100)	B13
152 relative (IL6R-BF648/IL6R-L = 100)	B14
137 relative (IL6R-BF648/IL6R-L = 100)	B15
141 relative (IL6R-BF648/IL6R-L = 100)	B16
122 relative (IL6R-BF648/IL6R-L = 100)	B17
147 relative (IL6R-BF648/IL6R-L = 100)	B18
58 relative (IL6R-BF648/IL6R-L = 100)	B19

Biological target: T5, human FcγRIIIa type V (human, UniProt P08637 17-208, limits assumed)
T5 construct: also called FcgRIIIaV; FcγRIIIa(V)
Assay: as above
Description: as §1

T5 sequence (P08637 other isoform, or with tags, fused parts or gaps limits assumed): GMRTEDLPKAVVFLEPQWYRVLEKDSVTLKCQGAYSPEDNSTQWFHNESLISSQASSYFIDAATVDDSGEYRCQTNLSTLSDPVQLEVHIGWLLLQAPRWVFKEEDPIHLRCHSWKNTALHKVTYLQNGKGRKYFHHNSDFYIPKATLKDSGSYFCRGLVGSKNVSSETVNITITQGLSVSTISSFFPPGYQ

relative binding activity	Binder
87 relative (IL6R-BF648/IL6R-L = 100)	B1
100 relative (IL6R-BF648/IL6R-L = 100)	B2
122 relative (IL6R-BF648/IL6R-L = 100)	B3
221 relative (IL6R-BF648/IL6R-L = 100)	B6
120 relative (IL6R-BF648/IL6R-L = 100)	B20
123 relative (IL6R-BF648/IL6R-L = 100)	B7
118 relative (IL6R-BF648/IL6R-L = 100)	B8
122 relative (IL6R-BF648/IL6R-L = 100)	B9
87 relative (IL6R-BF648/IL6R-L = 100)	B12
126 relative (IL6R-BF648/IL6R-L = 100)	B13
104 relative (IL6R-BF648/IL6R-L = 100)	B14
158 relative (IL6R-BF648/IL6R-L = 100)	B15
106 relative (IL6R-BF648/IL6R-L = 100)	B16
107 relative (IL6R-BF648/IL6R-L = 100)	B17
136 relative (IL6R-BF648/IL6R-L = 100)	B18
3260 relative (IL6R-BF648/IL6R-L = 100)	B19
